The nature of this data set: total protein half-life in vivo (active degradation + dilution); higher = more stable protein.
[1] abbreviates: E. coli NCM3722 delta-clpP delta-lon delta-hslV, growth: N-lim chemostat, doubling time 6 h.
Setting [2] is: E. coli NCM3722 delta-lon, growth: N-lim chemostat, doubling time 6 h.
Setting [3] is: E. coli NCM3722 delta-smpB, growth: N-lim chemostat, doubling time 6 h.
Setting [4] is: wild type E. coli NCM3722, growth: C-lim chemostat, doubling time 3 h.
Setting [5] is: wild type E. coli NCM3722, growth: C-lim chemostat, doubling time 12 h.
The mark [6] stands for this setting: wild type E. coli NCM3722, growth: N-lim chemostat, doubling time 12 h.
Where [7] appears, read: wild type E. coli NCM3722, growth: P-lim chemostat, doubling time 12 h.
Setting [8] is: E. coli NCM3722 delta-clpP, growth: N-lim chemostat, doubling time 6 h.
[9] abbreviates: E. coli NCM3722 delta-hslV, growth: N-lim chemostat, doubling time 6 h.
[10] abbreviates: wild type E. coli NCM3722, growth: C-lim chemostat, doubling time 6 h.
Setting [11] is: wild type E. coli NCM3722, growth: N-lim chemostat, doubling time 6 h.
Where [12] appears, read: wild type E. coli NCM3722, growth: P-lim chemostat, doubling time 6 h.

± gives the standard deviation of the averaged measurements.

Take “MKILLAALTSSFMLVGCTPRIEVAAPKEPITINMNVKIEHEIIIKADKDVEELLETRSDLF”: the “total protein half-life in vivo” value under setting [1] was 7.04 ± 0.68 h; the “total protein half-life in vivo” value under setting [2] was 6.88 ± 0.2 h; the “total protein half-life in vivo” value under setting [3] is 5.661 ± 0.018 h; the “total protein half-life in vivo” value under setting [4] was 3.15 ± 0.11 h; the “total protein half-life in vivo” value under setting [5] was 12 ± 1.4 h; the “total protein half-life in vivo” value under setting [6] stood at 13.6 ± 1.1 h. Under setting [7], the “total protein half-life in vivo” value is 12.9 ± 0.47 h.

Consider “MERIVVTLGERSYPITIASGLFNEPASFLPLKSGEQVMLVTNETLAPLYLDKVRGVLEQAGVNVDSVILPDGEQYKSLAVLDTVFTALLQKPHGRDTTLVALGGGVVGDLTGFAAASYQRGVRFIQVPTTLLSQVDSSVGGKTAVNHPLGKNMIGAFYQPASVVVDLDCLKTLPPRELASGLAEVIKYGIILDGAFFNWLEENLDALLRLDGPAMAYCIRRCCELKAEVVAADERETGLRALLNLGHTFGHAIEAEMGYGNWLHGEAVAAGMVMAARTSERLGQFSSAETQRIITLLKRAGLPVNGPREMSAQAYLPHMLRDKKVLAGEMRLILPLAIGKSEVRSGVSHELVLNAIADCQSA”, for which the “total protein half-life in vivo” value stood at 4.67 ± 1.3 h under setting [1]; 3.73 ± 0.43 h under setting [8]; 3.46 ± 0.2 h under setting [9]; 3.72 ± 0.1 h under setting [2]; 3.57 ± 0.046 h under setting [3]; 2.77 ± 0.15 h under setting [4]. Moreover, the “total protein half-life in vivo” value under setting [10] was 5.16 ± 0.2 h; the “total protein half-life in vivo” value under setting [5] was 8.87 ± 0.33 h; the “total protein half-life in vivo” value under setting [11] was 3.49 ± 0.091 h; the “total protein half-life in vivo” value under setting [6] worked out at 5.447 ± 0.037 h; the “total protein half-life in vivo” value under setting [12] amounted to 5.77 ± 0.57 h; the “total protein half-life in vivo” value under setting [7] stood at 10.6 ± 0.48 h.

Consider “MAQRVQLTATVSENQLGQRLDQALAEMFPDYSRSRIKEWILDQRVLVNGKVCDKPKEKVLGGEQVAINAEIEEEARFEPQDIPLDIVYEDEDIIIINKPRDLVVHPGAGNPDGTVLNALLHYYPPIADVPRAGIVHRLDKDTTGLMVVAKTVPAQTRLVESLQRREITREYEAVAIGHMTAGGTVDEPISRHPTKRTHMAVHPMGKPAVTHYRIMEHFRVHTRLRLRLETGRTHQIRVHMAHITHPLVGDPVYGGRPRPPKGASEAFISTLRKFDRQALHATMLRLYHPISGIEMEWHAPIPQDMVELIEVMRADFEEHKDEVDWL”, for which the “total protein half-life in vivo” value under setting [1] came to 5.82 ± 0.6 h; the “total protein half-life in vivo” value under setting [8] worked out at 5.7 ± 0.94 h; the “total protein half-life in vivo” value under setting [9] was 5.65 ± 0.66 h; the “total protein half-life in vivo” value under setting [2] stood at 5.51 ± 0.46 h; the “total protein half-life in vivo” value under setting [3] came out at 4.66 ± 0.21 h; the “total protein half-life in vivo” value under setting [4] was 3.66 ± 0.34 h. Besides, the “total protein half-life in vivo” value runs as follows: under setting [10], 5.83 ± 0.07 h; under setting [5], 9.95 ± 1.4 h; under setting [11], 5.63 ± 0.2 h; under setting [6], 8.47 ± 0.64 h; under setting [12], 5.72 ± 0.12 h; under setting [7], 11.2 ± 0.25 h.

In the case of “MSTIVIFLAALLACSLLAGWLIKVRSRRRQLPWTNAFADAQTRKLTPEERSAVENYLESLTQVLQVPGPTGASAAPISLALNAESNNVMMLTHAITRYGISTDDPNKWRYYLDSVEVHLPPFWEQYINDENTVELIHTDSLPLVISLNGHTLQEYMQETRSYALQPVPSTQASIRGEESEQIELLNIRKETHEEYALSRPRGLREALLIVASFLMFFFCLITPDVFVPWLAGGALLLLGAGLWGLFAPPAKSSLREIHCLRGTPRRWGLFGENDQEQINNISLGIIDLVYPAHWQPYIAQDLGQQTDIDIYLDRHVVRQGRYLSLHDEVKNFPLQHWLRSTIIAAGSLLVLFMLLFWIPLDMPLKFTLSWMKGAQTIEATSVKQLADAGVRVGDTLRISGTGMCNIRTSGTWSAKTNSPFLPFDCSQIIWNDARSLPLPESELVNKATALTEAVNRQLHPKPEDESRVSASLRSAIQKSGMVLLDDFGDIVLKTADLCSAKDDCVRLKNALVNLGNSKDWDALVKRANAGKLDGVNVLLRPVSAESLDNLVATSTAPFITHETARAAQSLNSPAPGGFLIVSDEGSDFVDQPWPSASLYDYPPQEQWNAFQKLAQMLMHTPFNAEGIVTKIFTDANGTQHIGLHPIPDRSGLWRYLSTTLLLLTMLGSAIYNGVQAWRRYQRHRTRMMEIQAYYESCLNPQLITPSESLIE”, the “total protein half-life in vivo” value reads like this: under setting [1], 7.278 ± 0.055 h; under setting [8], 6.37 ± 0.32 h; under setting [9], 6.48 ± 0.55 h; under setting [2], 6.72 ± 0.7 h; under setting [3], 5.73 ± 0.16 h; under setting [4], 3.25 ± 0.17 h. Besides, the “total protein half-life in vivo” value is, setting by setting: under setting [5], 13.9 ± 1.9 h; under setting [11], 6.06 ± 0.22 h; under setting [6], 11.6 ± 1.6 h; under setting [12], 6.84 ± 0.8 h.

For “MSWQQFKHAWLIKFWAPIPAVIAAGILSTYYFGITGTFWAVTGEFTRWGGQLLQLFGVHAEEWGYFKIIHLEGSPLTRIDGMMILGMFGGCFAAALWANNVKLRMPRSRIRIMQAIIGGIIAGFGARLAMGCNLAAFFTGIPQFSLHAWFFAIATAIGSWFGARFTLLPIFRIPVKMQKVSAASPLTQKPDQARRRFRLGMLVFFGMLGWALLTAMNQPKLGLAMLFGVGFGLLIERAQICFTSAFRDMWITGRTHMAKAIIIGMAVSAIGIFSYVQLGVEPKIMWAGPNAVIGGLLFGFGIVLAGGCETGWMYRAVEGQVHYWWVGLGNVIGSTILAYYWDDFAPALATDWDKINLLKTFGPMGGLLVTYLLLFAALMLIIGWEKRFFRRAAPQTAKEIA”, the “total protein half-life in vivo” value is, setting by setting: under setting [8], 1.86 h; under setting [9], 2.16 h; under setting [3], 3.67 h; under setting [10], 4.44 ± 0.089 h; under setting [5], 6.8 ± 1.4 h; under setting [11], 3.69 h. In addition, the “total protein half-life in vivo” value under setting [12] came out at 2.95 h.

Consider “MTTLAIDIGGTKLAAALIGADGQIRDRRELPTPASQTPEALRDALSALVSPLQAHAQRVAIASTGIIRDGSLLALNPHNLGGLLHFPLVKTLEQLTNLPTIAINDAQAAAWAEFQALDGDITDMVFITVSTGVGGGVVSGCKLLTGPGGLAGHIGHTLADPHGPVCGCGRTGCVEAIASGRGIAAAAQGELAGADAKTIFTRAGQGDEQAQQLIHRSARTLARLIADIKATTDCQCVVVGGSVGLAEGYLALVETYLAQEPAAFHVDLLAAHYRHDAGLLGAALLAQGEKL”, for which the “total protein half-life in vivo” value turned out to be 4.69 ± 0.65 h under setting [1]; 4.78 ± 0.069 h under setting [8]; 4.19 ± 0.69 h under setting [9]; 3.56 ± 1.9 h under setting [2]; 4.85 ± 0.36 h under setting [3]; 2.57 ± 0.17 h under setting [4]. The “total protein half-life in vivo” value was 5 ± 0.45 h under setting [10]; 9.07 ± 0.36 h under setting [5]; 5.02 ± 0.21 h under setting [11]; 5.13 ± 2.2 h under setting [6]; 10.5 ± 0.22 h under setting [7].

On to “MAVHLLIVDALNLIRRIHAVQGSPCVETCQHALDQLIMHSQPTHAVAVFDDENRSSGWRHQRLPDYKAGRPPMPEELHDEMPALRAAFEQRGVPCWSTSGNEADDLAATLAVKVTQAGHQATIVSTDKGYCQLLSPTLRIRDYFQKRWLDAPFIDKEFGVQPQQLPDYWGLAGISSSKVPGVAGIGPKSATQLLVEFQSLEGIYENLDAVAEKWRKKLETHKEMAFLCRDIARLQTDLHIDGNLQQLRLVR”, for which the “total protein half-life in vivo” value is, setting by setting: under setting [1], 4.94 ± 0.096 h; under setting [8], 4.23 ± 0.28 h; under setting [9], 4.29 h; under setting [2], 5.14 ± 0.59 h; under setting [3], 3.86 ± 0.59 h; under setting [4], 2.66 ± 0.54 h. Also, the “total protein half-life in vivo” value reads like this: under setting [5], 10.7 ± 0.93 h; under setting [11], 4.2 ± 0.5 h; under setting [6], 8.02 h; under setting [12], 5.06 ± 0.52 h; under setting [7], 10.7 ± 1.7 h.

The values above are taken from the supplement of paper PMC11246515.
